Results as given in patent US20220227830A1, “QD DOSING OF GIP RECEPTOR AGONIST PEPTIDE COMPOUNDS AND USES THEREOF” (Takeda Pharmaceutical Company Limited, priority 2020, published 2022).
Starred links: 1 amine or outer side, 2 acyl side, 3 side chain; linkers in the order of their positions; H or OH if unused. Non-standard residues stand in square brackets, D forms with d. Groups on a side chain read outwards from the residue. No end group written: not given here. *: point of attachment. 2OEGgE = O=C(CC[C@H](N[*:1])C(=O)O)NCCOCCOCC(=O)NCCOCCOCC(=O)[*:2]; C16 diacid = O=C(O)CCCCCCCCCCCCCCC(=O)*; C15 diacid = O=C(O)CCCCCCCCCCCCCC(=O)*; γGlu = O=C(O)[C@H](CCC(=O)[*:2])N[*:1]; NMeY = CN[C@@H](Cc1ccc(O)cc1)C(=O)O; AEEA = NCCOCCOCC(=O)O; Aib = CC(C)(N)C(=O)O

T1: full-length human GIPR with an N-terminal FLAG tag (human, UniProt P48546 22-466)
T1 sequence (looked up): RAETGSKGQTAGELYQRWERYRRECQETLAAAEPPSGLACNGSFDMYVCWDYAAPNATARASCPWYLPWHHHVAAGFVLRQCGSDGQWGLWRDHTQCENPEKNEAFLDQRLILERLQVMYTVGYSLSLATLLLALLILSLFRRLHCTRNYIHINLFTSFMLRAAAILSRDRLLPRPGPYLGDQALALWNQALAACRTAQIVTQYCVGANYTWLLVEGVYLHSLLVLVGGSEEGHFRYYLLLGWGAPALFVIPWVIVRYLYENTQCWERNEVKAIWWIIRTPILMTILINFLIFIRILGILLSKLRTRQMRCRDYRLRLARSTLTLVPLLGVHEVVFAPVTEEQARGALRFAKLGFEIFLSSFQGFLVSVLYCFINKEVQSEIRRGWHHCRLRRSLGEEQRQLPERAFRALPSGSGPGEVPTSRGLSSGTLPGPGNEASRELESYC


Legend:
[1] = target: T1, full-length human GIPR with an …; test: cell-based or functional assay
[2] = target: full-length human GLP-1R with an N-terminal FLAG tag (human, UniProt P43220 24-463); test: cell-based or functional assay

Binder | Human GIPR cAMP, HEK293T EC50 [1] [nM] | Human GLP1R cAMP HEK293T EC50 [2] [nM]
[NMeY][Aib]EGTFISDYSIALDR[Aib]K([2OEGgE-C15 diacid])Q[Aib]DFVNWLLAQRPSSGAPPPS-NH2 (N-terminus assumed; SMILES CC[C@H](C)[C@H](NC(=O)[C@H](CO)NC(=O)[C@H](Cc1ccc(O)cc1)NC(=O)[C@H](CC(=O)O)NC(=O)[C@H](CO)NC(=O)[C@@H](NC(=O)[C@H](Cc1ccccc1)NC(=O)[C@@H](NC(=O)CNC(=O)[C@H](CCC(=O)O)NC(=O)C(C)(C)NC(=O)[C@H](Cc1ccc(O)cc1)NC)[C@@H](C)O)[C@@H](C)CC)C(=O)N[C@@H](C)C(=O)N[C@@H](CC(C)C)C(=O)N[C@@H](CC(=O)O)C(=O)N[C@@H](CCCNC(=N)N)C(=O)NC(C)(C)C(=O)N[C@@H](CCCCNC(=O)COCCOCCNC(=O)COCCOCCNC(=O)CC[C@H](NC(=O)CCCCCCCCCCCCCC(=O)O)C(=O)O)C(=O)N[C@@H](CCC(N)=O)C(=O)NC(C)(C)C(=O)N[C@@H](CC(=O)O)C(=O)N[C@@H](Cc1ccccc1)C(=O)N[C@H](C(=O)N[C@@H](CC(N)=O)C(=O)N[C@@H](Cc1c[nH]c2ccccc12)C(=O)N[C@@H](CC(C)C)C(=O)N[C@@H](CC(C)C)C(=O)N[C@@H](C)C(=O)N[C@@H](CCC(N)=O)C(=O)N[C@@H](CCCNC(=N)N)C(=O)N1CCC[C@H]1C(=O)N[C@@H](CO)C(=O)N[C@@H](CO)C(=O)NCC(=O)N[C@@H](C)C(=O)N1CCC[C@H]1C(=O)N1CCC[C@H]1C(=O)N1CCC[C@H]1C(=O)N[C@@H](CO)C(N)=O)C(C)C) [Compound 75] | 0.0011 | 1000
[NMeY][Aib]EGTFISDYSIALDR[Aib]K([AEEA-AEEA-γGlu-C15 diacid])Q[Aib]DFVNWLLAQSPSSGAPPPS-NH2 (N-terminus assumed; SMILES CC[C@H](C)[C@H](NC(=O)[C@H](CO)NC(=O)[C@H](Cc1ccc(O)cc1)NC(=O)[C@H](CC(=O)O)NC(=O)[C@H](CO)NC(=O)[C@@H](NC(=O)[C@H](Cc1ccccc1)NC(=O)[C@@H](NC(=O)CNC(=O)[C@H](CCC(=O)O)NC(=O)C(C)(C)NC(=O)[C@H](Cc1ccc(O)cc1)NC)[C@@H](C)O)[C@@H](C)CC)C(=O)N[C@@H](C)C(=O)N[C@@H](CC(C)C)C(=O)N[C@@H](CC(=O)O)C(=O)N[C@@H](CCCNC(=N)N)C(=O)NC(C)(C)C(=O)N[C@@H](CCCCNC(=O)COCCOCCNC(=O)COCCOCCNC(=O)CC[C@H](NC(=O)CCCCCCCCCCCCCC(=O)O)C(=O)O)C(=O)N[C@@H](CCC(N)=O)C(=O)NC(C)(C)C(=O)N[C@@H](CC(=O)O)C(=O)N[C@@H](Cc1ccccc1)C(=O)N[C@H](C(=O)N[C@@H](CC(N)=O)C(=O)N[C@@H](Cc1c[nH]c2ccccc12)C(=O)N[C@@H](CC(C)C)C(=O)N[C@@H](CC(C)C)C(=O)N[C@@H](C)C(=O)N[C@@H](CCC(N)=O)C(=O)N[C@@H](CO)C(=O)N1CCC[C@H]1C(=O)N[C@@H](CO)C(=O)N[C@@H](CO)C(=O)NCC(=O)N[C@@H](C)C(=O)N1CCC[C@H]1C(=O)N1CCC[C@H]1C(=O)N1CCC[C@H]1C(=O)N[C@@H](CO)C(N)=O)C(C)C) [Compound 76] | 0.0005 | 295
[NMeY][Aib]EGTFISDYSIAKDR[Aib]AQ[Aib]NFVNWLLAQRPSSGAPPPS-NH2 (not fully specified (residue 14)) [Compound 77] | 0.0002 | 331
[NMeY][Aib]EGTFISDYSIAK([G4-γGlu-C15 diacid])DR[Aib]AQ[Aib]NFVNWLLAQSPSSGAPPPS-NH2 [Compound 78] | 0.0003 | 112
[NMeY]SEGTFISDYSIAK([2OEG-γGlu-C16 diacid])DRIHQ[Aib]NFVNWLLAQK (not fully specified (N-terminus)) [Compound 7] | 0.0016 | 257
[NMeY][Aib]EGTFISDYSIAK([G5-γGlu-C15 diacid])DR[Aib]AQ[Aib]DFVNWLLAQRPSSGAPPPS-NH2 [Compound 80] | 0.0004 | 468
[NMeY][Aib]EGTFISDYSIAK([G5-γGlu-γGlu-C15 diacid])DR[Aib]AQ[Aib]NFVNWLLAQSPSSGAPPPS-NH2 [Compound 81] | 0.0002 | 1000
[NMeY][Aib]EGTFISDYSIAK([G5-γGlu-C15 diacid])DR[Aib]AQ[Aib]NFVNWLLAQSPSSGAPPPS-NH2 [Compound 82] | 0.0003 | 295
[NMeY][Aib]EGTFISDYSIALDR[Aib]AQ[Aib]KFVNWLLAQS-NH2 (not fully specified (residue 21)) [Compound 85] | 0.0009 | 63.1
[NMeY][Aib]EGTFISDYSIALDR[Aib]AQ[Aib]NFVNWLLAK([AEEA-AEEA-γGlu-γGlu-C15 diacid])RPSSGAPPPS-NH2 (N-terminus assumed; SMILES CC[C@H](C)[C@H](NC(=O)[C@H](CO)NC(=O)[C@H](Cc1ccc(O)cc1)NC(=O)[C@H](CC(=O)O)NC(=O)[C@H](CO)NC(=O)[C@@H](NC(=O)[C@H](Cc1ccccc1)NC(=O)[C@@H](NC(=O)CNC(=O)[C@H](CCC(=O)O)NC(=O)C(C)(C)NC(=O)[C@H](Cc1ccc(O)cc1)NC)[C@@H](C)O)[C@@H](C)CC)C(=O)N[C@@H](C)C(=O)N[C@@H](CC(C)C)C(=O)N[C@@H](CC(=O)O)C(=O)N[C@@H](CCCNC(=N)N)C(=O)NC(C)(C)C(=O)N[C@@H](C)C(=O)N[C@@H](CCC(N)=O)C(=O)NC(C)(C)C(=O)N[C@@H](CC(N)=O)C(=O)N[C@@H](Cc1ccccc1)C(=O)N[C@H](C(=O)N[C@@H](CC(N)=O)C(=O)N[C@@H](Cc1c[nH]c2ccccc12)C(=O)N[C@@H](CC(C)C)C(=O)N[C@@H](CC(C)C)C(=O)N[C@@H](C)C(=O)N[C@@H](CCCCNC(=O)COCCOCCNC(=O)COCCOCCNC(=O)CC[C@H](NC(=O)CC[C@H](NC(=O)CCCCCCCCCCCCCC(=O)O)C(=O)O)C(=O)O)C(=O)N[C@@H](CCCNC(=N)N)C(=O)N1CCC[C@H]1C(=O)N[C@@H](CO)C(=O)N[C@@H](CO)C(=O)NCC(=O)N[C@@H](C)C(=O)N1CCC[C@H]1C(=O)N1CCC[C@H]1C(=O)N1CCC[C@H]1C(=O)N[C@@H](CO)C(N)=O)C(C)C) [Compound 88] | 0.0006 | 166
[NMeY][Aib]EGTFISDYSIALDRIK([AEEA-AEEA-γGlu-C16 diacid])Q[Aib]NFVNWLLAQK [Compound 8] | 0.0001 | 100
[NMeY][Aib]EGTFISDYSIALDR[Aib]AQ[Aib]NFVNWLLAQK([AEEA-AEEA-γGlu-γGlu-C15 diacid])-NH2 (N-terminus assumed; SMILES CC[C@H](C)[C@H](NC(=O)[C@H](CO)NC(=O)[C@H](Cc1ccc(O)cc1)NC(=O)[C@H](CC(=O)O)NC(=O)[C@H](CO)NC(=O)[C@@H](NC(=O)[C@H](Cc1ccccc1)NC(=O)[C@@H](NC(=O)CNC(=O)[C@H](CCC(=O)O)NC(=O)C(C)(C)NC(=O)[C@H](Cc1ccc(O)cc1)NC)[C@@H](C)O)[C@@H](C)CC)C(=O)N[C@@H](C)C(=O)N[C@@H](CC(C)C)C(=O)N[C@@H](CC(=O)O)C(=O)N[C@@H](CCCNC(=N)N)C(=O)NC(C)(C)C(=O)N[C@@H](C)C(=O)N[C@@H](CCC(N)=O)C(=O)NC(C)(C)C(=O)N[C@@H](CC(N)=O)C(=O)N[C@@H](Cc1ccccc1)C(=O)N[C@H](C(=O)N[C@@H](CC(N)=O)C(=O)N[C@@H](Cc1c[nH]c2ccccc12)C(=O)N[C@@H](CC(C)C)C(=O)N[C@@H](CC(C)C)C(=O)N[C@@H](C)C(=O)N[C@@H](CCC(N)=O)C(=O)N[C@@H](CCCCNC(=O)COCCOCCNC(=O)COCCOCCNC(=O)CC[C@H](NC(=O)CC[C@H](NC(=O)CCCCCCCCCCCCCC(=O)O)C(=O)O)C(=O)O)C(N)=O)C(C)C) [Compound 91] | 0.0008 | 126
